A word on the Kd: it is the constant that tells how readily two partners part at equilibrium. Read a low Kd as a tighter complex. As a reminder, the koff is the rate constant with which the complex falls apart. Lower therefore signals slow dissociation. As usually defined, the kon is the second-order rate constant of association. By EC50 is commonly meant the midpoint of the concentration-response curve. Lower therefore signals higher potency in that assay. A word on the IC50: it is the concentration needed to halve the response being measured. Read a high IC50 as a need for much substance.

The values that follow come from patent US20170166644A1 (SORRENTO THERAPEUTICS, published 2017).

Substitutions are numbered along the chain they refer to.

Test [1] has as its target T1, VEGFR2.
T1 construct: also called KDR
Nature of the test: Biacore.
T1 sequence (P35968 20-764): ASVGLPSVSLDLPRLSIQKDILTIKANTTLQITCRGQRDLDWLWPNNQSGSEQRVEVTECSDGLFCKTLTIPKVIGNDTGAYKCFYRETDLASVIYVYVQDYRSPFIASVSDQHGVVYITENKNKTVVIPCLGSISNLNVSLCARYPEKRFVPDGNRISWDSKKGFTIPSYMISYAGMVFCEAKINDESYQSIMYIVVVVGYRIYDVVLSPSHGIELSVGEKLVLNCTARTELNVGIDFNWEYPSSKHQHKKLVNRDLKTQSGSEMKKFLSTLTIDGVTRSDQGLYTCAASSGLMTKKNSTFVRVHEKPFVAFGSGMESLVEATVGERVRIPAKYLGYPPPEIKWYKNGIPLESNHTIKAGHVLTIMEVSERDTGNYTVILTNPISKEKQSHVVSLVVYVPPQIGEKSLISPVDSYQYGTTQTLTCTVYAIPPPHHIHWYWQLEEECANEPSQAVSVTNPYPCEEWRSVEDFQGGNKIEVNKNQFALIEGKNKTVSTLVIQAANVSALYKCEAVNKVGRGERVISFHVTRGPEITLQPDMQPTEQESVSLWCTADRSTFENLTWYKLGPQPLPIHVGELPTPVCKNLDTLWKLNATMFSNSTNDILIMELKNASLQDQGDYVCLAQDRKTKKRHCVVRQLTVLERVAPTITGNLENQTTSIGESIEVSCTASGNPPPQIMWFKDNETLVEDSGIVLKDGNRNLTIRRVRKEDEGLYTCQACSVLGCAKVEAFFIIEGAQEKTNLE

The target in test [2] is T1, VEGFR2. Nature of the test: EC50 measurement, summary table; assay not stated.
In test [3] the target is T1, VEGFR2. Nature of the test: IC50 measurement, summary table; assay not stated.
Test [4] addresses T2, VEGFR2 on HUVECs (human, UniProt P35968 20-1356). Nature of the test: cell-based or functional assay.
For test [5], the target named is soluble VEGFR2-Fc. Nature of the test: blocking of VEGF binding to soluble VEGFR2-Fc (FIG. 2).
In test [6] the target is T2, VEGFR2 on HUVECs. Nature of the test: cell binding to HUVE cells, flow cytometry (FIG. 3 legend); FIG. 3 legend, unrounded value. Here is the method:
(§1) This example illustrates in vitro data for VK-B8 cellular EC₅₀ measurements. Protocol: 50,000 HUVECs were aliquoted into the wells of a 96-well, v-bottom plate in 100 ul FACS Buffer (PBS+2% FBS). A twelve point, 3× dilution curve of VK-B8 was made in FACS Buffer starting at 50 μg/ml (3.33×10⁻⁷ M). Cells were spun down, washed 1× with FACS Buffer, and then resuspended in 25 μl of antibody solution in triplicate. […] Cells were further incubated for 0.5 hr. and then washed 1× with FACS Buffer. Cells were resuspended in 25 μl FACS Buffer and the median fluorescence intensity in the FL2-H channel was determined using the Intellicyt HTFC flow cytometer.
(§2) Results: The cell binding EC₅₀ for VK-B8 on HUVECs was determined to be 1.3 nM. Data was analyzed and plotted in Graph Pad Prizm using non-linear regression fit. Data points are shown (FIG. 4) as the median fluorescence intensity (MFI) of positively labeled cells +/− Std Error.
On the technique in general: A flow cytometer gives signals particle by particle.

The target in test [7] is T2, VEGFR2 on HUVECs. Nature of the test: flow cytometry on HUVECs, MFI against antibody concentration, non-linear fit (Example 6); unit taken from the axis label 'Antibody Conc (M)', log scale. The protocol: as §1, §2
Test [8] deals with soluble VEGFR2-Fc. Nature of the test: blocking of VEGF binding to soluble VEGFR2-Fc, VK-B8 titrated, readout OD 450; plate format not described; unit taken from the axis label 'VK-B8 [log M]'.

T2 sequence (P35968 20-1356): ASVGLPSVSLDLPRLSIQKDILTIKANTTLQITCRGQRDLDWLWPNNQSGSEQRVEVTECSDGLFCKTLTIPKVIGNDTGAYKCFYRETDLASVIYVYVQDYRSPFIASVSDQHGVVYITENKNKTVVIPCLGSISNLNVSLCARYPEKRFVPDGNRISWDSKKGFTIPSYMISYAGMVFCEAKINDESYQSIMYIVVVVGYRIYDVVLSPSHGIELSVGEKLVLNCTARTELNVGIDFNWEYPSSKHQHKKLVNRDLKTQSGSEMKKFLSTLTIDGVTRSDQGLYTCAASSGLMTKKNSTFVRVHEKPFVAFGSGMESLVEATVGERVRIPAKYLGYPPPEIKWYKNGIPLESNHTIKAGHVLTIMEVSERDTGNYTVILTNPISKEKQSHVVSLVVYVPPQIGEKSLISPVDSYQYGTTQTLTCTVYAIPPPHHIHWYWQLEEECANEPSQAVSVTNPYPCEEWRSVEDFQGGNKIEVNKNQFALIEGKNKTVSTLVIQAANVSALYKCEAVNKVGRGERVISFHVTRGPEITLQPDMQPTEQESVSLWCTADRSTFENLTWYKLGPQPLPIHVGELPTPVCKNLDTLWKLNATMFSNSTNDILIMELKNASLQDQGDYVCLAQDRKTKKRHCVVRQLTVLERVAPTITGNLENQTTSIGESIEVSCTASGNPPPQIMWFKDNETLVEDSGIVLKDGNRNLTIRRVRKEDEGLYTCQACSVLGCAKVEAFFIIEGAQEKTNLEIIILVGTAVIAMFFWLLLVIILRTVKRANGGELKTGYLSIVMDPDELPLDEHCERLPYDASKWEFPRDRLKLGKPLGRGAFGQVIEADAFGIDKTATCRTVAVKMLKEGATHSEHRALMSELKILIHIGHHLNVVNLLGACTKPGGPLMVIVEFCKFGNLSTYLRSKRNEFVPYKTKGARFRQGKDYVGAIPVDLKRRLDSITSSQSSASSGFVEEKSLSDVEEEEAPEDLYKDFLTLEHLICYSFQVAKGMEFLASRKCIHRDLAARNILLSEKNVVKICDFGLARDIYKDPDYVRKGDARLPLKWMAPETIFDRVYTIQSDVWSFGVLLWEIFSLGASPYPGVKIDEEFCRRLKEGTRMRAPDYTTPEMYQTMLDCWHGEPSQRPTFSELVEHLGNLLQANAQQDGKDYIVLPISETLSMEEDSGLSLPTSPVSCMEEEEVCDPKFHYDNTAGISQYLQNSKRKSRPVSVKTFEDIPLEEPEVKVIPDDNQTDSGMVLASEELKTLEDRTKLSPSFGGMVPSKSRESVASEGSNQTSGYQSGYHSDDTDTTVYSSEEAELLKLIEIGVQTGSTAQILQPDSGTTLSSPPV
Sequence of soluble VEGFR2-Fc (P35968 20-764): as the sequence (P35968 20-764) above

B1: RV-H5 (antibody, V domains shown)
VH: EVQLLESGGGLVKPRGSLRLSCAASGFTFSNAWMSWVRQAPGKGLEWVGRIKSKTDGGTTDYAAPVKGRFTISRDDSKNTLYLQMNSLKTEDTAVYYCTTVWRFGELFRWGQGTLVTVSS
VL: QAGLTQPPSVSVSPGQTASITCSGDKLGDKYISWYQQKPGQSPVMVIFQDTKRPSGIPERFSGSNSGNTATLTISGTQAMDEADYYCQAWDTSTVFGGGTKLTVL
In the test with VEGFR2 [1], B1 gave a Kd of 0.815 nM, a koff of 0.00225 s⁻¹ and an association rate constant (kon) of 2.76e+06 M⁻¹ s⁻¹. For the same molecule, the EC50 with VEGFR2 [2] is 0.323 nM. In the test with VEGFR2 [3], this molecule registered an IC50 of 5.79 nM.

B2: VR-E3 (antibody, V domains shown)
VH: EVQLVESGGGLVKPGGSLRLSCAASGFTFSSYSMNWVRQAPGKGLEWVSSISSASSYIYYADSVKGRFTISRDNAKKSLYLQLNSLTVEDTAVYYCAREYWGSPDYWGRGTLVTVSS
VL: QPVLTQPPSASGSPGQSVTISCTGTSSDVGGYNYVSWYQQHPGKAPKLMIYDVNNRPSGVPDRFSGSKSGNTASLTISGLQAEDEADYYCSSYTSSSTRVFGGGTKLTVL
The molecule B2 came in with an EC50 with VEGFR2 [2] of 1.29 nM. The molecule also showed a 50% inhibitory concentration (IC50) with VEGFR2 [3] of 9.32 nM.

B3: VR-B2 (antibody, V domains shown)
VH: EVQLLESGGGLVQPGGSLRLSCAASGFTFSSYAMHWVRQAPGKGLEWVAVISYDGSNKYYADSVKGRFTISRDNSKNTLYLQMNSLRAEDTAVYYCARDLGAASYWYFDLWGRGTLVTVSS
VL: DIQLTQSPPSVSASVGDRVTITCRASQDISTWLAWYQQKPGSAPKVLIYAASTFQSGVPSRFRGSGSGTYFTLTISGLQPEDFATYYCQQGNSFPPTFGQGTKLEIK
In the test with VEGFR2 [2], B3 had an EC50 of 0.747 nM.

B4: VK-B8 (antibody, V domains shown)
VH: QVQLVQSGAEVKKPGSSVKVSCKAYGGTFGSYGVSWVRRAPGQGLEWMGRLIPIFGTRDYAQKFQGRVTLTADESTNTAYMELSSLRSEDTAVYYCARDGDYYGSGSYYGMDVWGQGTLVTVSS
VL: ETTLTQSPATLSVSPGERATVSCRASQSLGSNLGWFQQKPGQAPRLLIYGASTRATGIPARFSGSGSGTEFTLTISSLQSEDFAVYFCQQYNDWPITFGQGTRLEIK
notes: The printed VH starts with MA; also called STI-A0168; anti-VEGFR2 antibody VK-B8
For the molecule B4, in the test with VEGFR2 [1], the equilibrium dissociation constant (Kd) was found to be 0.121 nM, the koff is 8.73e-05 s⁻¹ and the kon was 724000 M⁻¹ s⁻¹. For the same molecule, in the test with VEGFR2 on HUVECs [4], the “IC50 for VK-B8 inhibition of VEGF-induced p44/p42 MAPK (Erk1/2) phosphorylation in HUVECs, phospho-ELISA” value worked out at 0.08 nM; the “IC50 value for the inhibition of VEGF-induced HUVEC cell migration by VK-B8 (FIG. 14 legend)” value amounted to 0.53 nM; the “IC50 value for the inhibition of VEGF-induced HUVEC cell proliferation by VK-B8 (FIG. 13 legend)” value amounted to 14.9 nM; the “IC50 value for the inhibition of VEGF-induced HUVEC migration by VK-B8 (modified Boyden chamber)” value amounted to 0.5 nM. Also, the “IC50 value for the inhibition of VEGF-induced HUVEC proliferation by VK-B8” value with VEGFR2 on HUVECs [4] came out at 14 nM. For the same molecule, in the test with VEGFR2 [2], the EC50 was determined as 0.25 nM. For the same molecule, the midpoint of inhibition in the test with VEGFR2 [3], the IC50, lay at 2.04 nM. The half-inhibitory concentration (IC50) in the test with soluble VEGFR2-Fc [5] was about 0.77 nM. In the test with VEGFR2 on HUVECs [6], the EC50 was about 1.3 nM. In addition, it took 1.3 nM to reach a half-maximal effect with VEGFR2 on HUVECs [7] (EC50). The molecule further came in with an IC50 with soluble VEGFR2-Fc [8] of 0.771 nM.

B5: VR-B4 (antibody, V domains shown)
VH: B4 VH with L119T
VL: SYELTQPASVSGSPGQSITISCTGSSSDVGGYNFVSWYRQHAGKAPKLMIYDVTNRPSGVSTRFSGSKSGTTASLTISGLQPDDEAHYYCSSYTTTSTWVFGGGTKLTVL
In the case of B5, it took 24.3 nM to reach a half-maximal effect with VEGFR2 [2] (EC50).

B6: VB-E1 (antibody, V domains shown)
VH: QVQLVESGAEVKKPGASVKVSCKASGYTFTNYYIHWVRQAPGQGLEWMGIINPSSGSTNYAQKFQGRVTMTRDTSTSTVYMELSSLRSEDTAVYYCARQRWDLLDDAFDIWGQGTMVTVSS
VL: DIVMTQSPDSLAVSLGERATINCKTSQSVLYNANNKNYLNWYQQKPGQPPKLLIYWASARESGVPDRFSGSGSGTDFTLTIRSLQPDDFATYYCQQAISFPLTFGGGTKVEIK
B6: in the test with VEGFR2 [2], the 50% effective concentration (EC50) is 0.5 nM.

B7: VB-A9 (antibody, V domains shown)
VH: EVQLVESGGGLVKPGGSLRLSCAASGFTFSSYSMNWVRQAPGKGLEWVSSISSGSSYIYYADSLKGRFTISRDNAKNSLYLQMNSLRAEDTAVYYCARDFGNWGQGTLVTVSS
VL: QSALTQPRSVSASPGQSVTISCTGTSSDVGGYDYVSWYQQHPGKAPKLMIYEVSNRPSGVSNRFSGSKSGNTASLSISGLQAEDEADYYCSSYTSTSSPVVFGGGTKLTVL
With B7, in the test with VEGFR2 [1], the affinity, expressed as Kd, was 3.02 nM; the koff stood at 0.000496 s⁻¹; the kon is 164000 M⁻¹ s⁻¹. It took 0.25 nM to reach a half-maximal effect in the test with VEGFR2 [2] (EC50). Also, the IC50 with VEGFR2 [3] was 2.05 nM.

B8: VB-A3 (antibody, V domains shown)
VH: QVQLVQSGAEVKKPGASVKVSCKASGHTFNYYYMHWVRQAPGQGLEWMGQTNLNSGGTNYAPKFQGRVTMTRDTSISTAYMELSSLRSDDTAVYYCANLNSGWFHFENWGQGTLVTVSS
VL: SYELTQPPSVSVAPGKTASITCGGNNIGSKSVHWYQQKPGQAPVLVIYYDRDRPSGIPERFSGSNSGNTATLTISRVEAGDEADYYCQVWDSSSYHPVFGGGTKLTVL
On to B8, for which, in the test with VEGFR2 [1], the dissociation constant (Kd) came to 3.09 nM, the koff is 0.012 s⁻¹ and the kon amounted to 3.88e+06 M⁻¹ s⁻¹.
